Each block holds one molecule with its values, some of them ahead of it.
Assays:
[1] = target: ニワトリリゾチーム (chicken lysozyme) (chicken) (UniProt P00698); assay: fluorescence quench titration; 200 nM Fab titrated with lysozyme in solution
[2] = target: ニワトリリゾチーム (chicken lysozyme) (chicken) (UniProt P00698); assay: legend of Figure 7 (antigen binding graph, fluorescence quench titration)
CD28Ig (human) [3] = target: CD28Ig (human) (UniProt P10747); assay: ELISA on CD28Ig-coated plates, detected with anti-human kappa conjugate
[4] = target: ヒトグルタミン酸デカルボキシラーゼ65kDaアイソフォーム (human glutamic acid decarboxylase, GAD65) (human) (UniProt Q05329); assay: immunoprecipitation of 35S-labelled GAD65 with Protein G-Sepharose; midpoint read by eye
CD28Ig (human) [5] = target: CD28Ig (human) (UniProt P10747); assay: legend of Figure 11 (antigen binding graph, ELISA)

Chain of UniProt P00698 (P00698 19-147 limits assumed): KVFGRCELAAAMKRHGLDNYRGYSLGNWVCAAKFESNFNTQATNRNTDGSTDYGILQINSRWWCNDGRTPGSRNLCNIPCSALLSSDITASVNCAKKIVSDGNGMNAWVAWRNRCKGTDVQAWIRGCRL
Chain of UniProt Q05329 (Q05329 whole entry): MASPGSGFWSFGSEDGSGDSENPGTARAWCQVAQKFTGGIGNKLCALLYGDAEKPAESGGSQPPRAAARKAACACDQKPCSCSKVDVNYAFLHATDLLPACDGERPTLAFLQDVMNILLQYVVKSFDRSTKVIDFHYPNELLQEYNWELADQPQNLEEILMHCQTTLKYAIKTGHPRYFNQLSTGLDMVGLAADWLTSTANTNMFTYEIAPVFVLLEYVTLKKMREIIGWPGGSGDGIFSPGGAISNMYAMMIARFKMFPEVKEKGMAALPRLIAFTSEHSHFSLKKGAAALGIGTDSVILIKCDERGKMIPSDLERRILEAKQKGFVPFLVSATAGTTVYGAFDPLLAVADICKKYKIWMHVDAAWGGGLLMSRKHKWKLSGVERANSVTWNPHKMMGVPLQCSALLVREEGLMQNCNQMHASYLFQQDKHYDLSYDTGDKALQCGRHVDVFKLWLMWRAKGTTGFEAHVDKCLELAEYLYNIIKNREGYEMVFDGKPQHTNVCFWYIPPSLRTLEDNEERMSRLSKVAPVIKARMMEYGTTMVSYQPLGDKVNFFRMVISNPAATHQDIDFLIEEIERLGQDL

Kd [1]: 23 nM
Ka [2]: > 1e+08 M⁻¹
Molecule: ヒト化D1.3 Fab (humanized D1.3 Fab, anti-chicken lysozyme)

EC50 (CD28Ig (human) [3]): 20 nM
Molecule: マウス9.3 Fab (Fab of mouse 9.3 variable domains and human constant domains)

EC50 [4]: 0.00036 nM
B1: マウスNGAD65 Fabフラグメント (mouse NGAD65 variable domains and constant domains) (Fab, from another filing, V domains shown)
VH: QVQLQQPGAELVKPGASVKMSCKASGYRFSSYNMHWVKQTPGQGLEWIGAIYPRSGDTSYNQKFKGKATLTADKSSSTAYMQLGSLTSEDSAVYYCVRSYDYDAPFAFWGQGTLVTVSA
VL: VLTQTPLSLPVSLGDQASISCRSSQSLEHNNGNTYLNWYLQKPGQSPQLLIYRVSNRFSGGLDRFSGSGSGTDFTLKISRVEAEDLGVYFCLQVTHVPFTFGSGTKLEIKR

EC50 (CD28Ig (human) [3]): 630 nM
Ka (CD28Ig (human) [5]): > 1e+06 M⁻¹
B2: ヒト化抗ヒトCD28(Hu9.3)Fabフラグメント (Fab, from another filing, V domains shown)
VH: EVQLVQSGGGLVQPGGSLRLSCAGSGFTFSDYGVHWVRQAPGKGLEWVSAIWAGGGTNYASSVMGRFTISRDNAKNSLYLQMNSLRAEDMAVYYCARDKGYSYYYSMDYWGQGTLVTVSS
VL: DIVMTQSPDSLAVSLGERATINCRASESVEYYVTSLMAWYQQKPGQPPKLLIYAASNVESGVPDRFSGSGSGTNFSLTISSLQAEDVAVYYCQQSRKVPYTFGQGTKLEIKR
